Laboratory results as given in patent publication US10925971B2, “Methods of treating PRLR positive breast cancer” (Regeneron Pharmaceuticals, Inc., priority 2016, dated 2021).

Legend:
PRLR expressing cells = test: In vitro cell viability (cell kill) assay, several cell backgrounds; type: cell-based, human; conditions: PC3/hPRLR and MCF7/hPRLR cell lines
Method in brief: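 Readout: CCK8 absorbance at 450 nm (293, PC3) or Hoechst-stained nuclear counts after formaldehyde fixation (MCF7). hPRLR-expressing lines, seeded overnight, got DM1 ADCs (non-cleavable SMCC linker) or DM1-SMe, 500 nM–5 pM, 3 days. Viability as % untreated after digitonin background; IC50 by four-parameter logistic.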

TM00107 PDX tumors = test: TM00107 patient derived xenograft (PDX) breast cancer model, tumor volume; type: in vivo, NOD SCID gamma (NSG) mice
Experimental: Efficacy of H1H6958N2-DM1 was also assessed in a patient derived xenograft (PDX) model of breast cancer that may better represent the response in patients. NOD SCID gamma (NSG) mice bearing tumor fragments of the TM00107 PDX breast cancer tumor were sourced from The Jackson Laboratories. The TM00107 PDX model was derived from an ER+/−/PR−/HER2− metastatic breast adenocarcinoma. PRLR expression was confirmed by microarray analysis and immunohistochemistry on tumor sample slides provided by The Jackson Laboratory (data not shown). When tumors were an average volume of ˜400-600 mm^3 (21 days post implantation), mice were randomized into treatment groups (n=7 mice/group) and were administered H1H6958N2-DM1, control ADC, or vehicle control by intravenous injection once weekly for a total of 4 weeks. A separate treatment group was administered paclitaxel by intravenous injection every 4 days for a total of 4 doses.

MCF7 (MCF7/ATCC) cells = test: In vitro cell viability (cell kill) assay, nuclear counts; type: cell-based, human; conditions: MCF7 cells, approximately 3000 copies of PRLR per cell
Method in brief: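 Anti-PRLR–DM1 ADCs (non-cleavable SMCC linker) or free DM1-SMe, 500 nM to 5 pM for 3 days on parental or hPRLR-overexpressing lines. HEK293: CCK8 OD450; MCF7: Hoechst nuclear counts by imaging.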

T47DvII tumors = test: Phospho-histone-H3 (pHH3) IHC in treated tumors, mitotic arrest; type: in vivo, mice
Experimental: In order to validate the activity of DM1 on microtubule activity, the induction of mitotic arrest following treatment of T47DvII tumors with H1H6958N2-DM1 in vivo was assessed by phospho-histone-H3 (pHH3) IHC. Mice were implanted with T47DvII cells and tumors were grown for 15 days where mice were randomized based on tumor volume and dosed intravenously with either vehicle, H1H6958N2-DM1 at 5 or 15 mg/kg or Control ADC at 15 mg/kg (N=4-5). At 24, 48 or 72 hours post-treatment, mice were euthanized and tumors processed as FFPE samples for IHC analysis. Tumor sections were then stained with anti-phospho Histone H3 (pHH3) antibody (clone: Ser10, Cell Signaling Technology #9701) as a measure of mitotic cells. Images were scanned on an Aperio XT Scan scope at 40× (Leica Systems). PHH3 positive nuclear signals were imaged and quantified with the Halo CytoNuclear Count algorithm (Halo, Indica Labs). The percent of positive cells in each tumor was quantified for each group and an average calculated for each treatment condition.

MCF7 tumors = test: MCF7 breast tumor xenograft, tumor volume; type: in vivo, NCr nude mice
Experimental: After MCF7 or MCF7/PRLR tumors reached an average volume of ˜150-200 mm^3 (14-16 days post implantation), mice were randomized into treatment groups (n=8-9 mice/group) and received a single dose or three once-weekly doses of H1H6958N2-DM1, control ADC, or vehicle control, administered systemically by intravenous tail-vein injection. Tumor size and body weight were measured in vivo twice per week throughout the duration of the study.
The T47Dv11 model was used to assess the activity of H1H6958N2-DM1 in a model with significant levels of endogenous PRLR. As parental T47D cells are poorly tumorigenic, in vivo passaging was employed to develop a variant with consistent tumorigenicity. Initially, 10×10^6 parental T47D cells were implanted subcutaneously (SC) into the left flank of female C.B.-17 SCID mice (Taconic, Hudson N.Y.). Tumors were supplemented with a 90-day release 1.7 mg estrogen pellet (Innovative Research America). Where T47D tumors were observed, they were excised and cut into 3 mm fragments and subsequently implanted into the left flank of separate female C.B.-17 SCID mice. Subsequent passaging was performed until a large tumor was disaggregated into a single cell suspension. The cells (named T47Dv11) from this tumor were then cultured in vitro and expanded. […] For efficacy studies, mice were implanted with 7.5×10^6 T47Dv11 cells into the left flank of female C.B.-17 SCID mice supplemented with a 90-day release 0.72 mg/pellet estrogen pellet. For MCF7 and MCF7/PRLR tumor xenografts, 2×10^7 MCF7/PRLR cells were implanted SC into the left mammary fat pad of female NCr nude mice (7-8 weeks old) supplemented with 90-day release 0.72 mg/pellet estrogen pellets. Tumors were measured with calipers twice a week for the duration of each study. Tumor volume was calculated using the formula TV=(length×width^2)/2.

B1: H1H6958N2-DM1: anti-PRLR antibody H1H6958N2 conjugated to the maytansinoid DM1 through an SMCC linker (conjugate)
VH: QVQLVESGGGVVQPGRSLRLSCGASGFTFRNYGMQWVRQGPGKGLEWVTLISFDGNDKYYADSVKGRFTISRDNSKNTLFLQMNSLRTEDTAVYYCARGGDFDYWGQGTLVTVSS
VL: DIQMTQSPSSLSASVGDRVTITCRASQDIRKDLGWYQQKPGKAPKRLIYAASSLHSGVPSRFSGSGSGTEFTLTISSLQPEDFATYYCLQHNSYPMYTFGQGTKLEIK
PRLR expressing cells
  cell killing, non-cleavable DM1 ADCs versus cleavable MMAE ADCs: nearly equivalent cell killing
TM00107 PDX tumors; 10 mg/kg once weekly, day 30, compared to vehicle
  average tumor volume: no significant difference in average tumor volume
TM00107 PDX tumors; 20 mg/kg once weekly, day 30, compared to 20 mg/kg control ADC
  average tumor volumes: moderate but significant (p<0.01) decrease
MCF7 (MCF7/ATCC) cells
  MCF7 cell killing in vitro: not inhibited
T47DvII tumors; 5 mg/kg intravenously, relative to vehicle
  pHH3 immunoreactivity in tumors: significant increase relative to vehicle treated tumors
T47DvII tumors; 15 mg/kg, data not shown
  pHH3 levels in tumors: further increase in pHH3 levels
T47DvII tumors; sampled at 24, 48 or 72 hours
  time of peak pHH3 levels post treatment: 48 hours
MCF7 tumors; repeat treatment (q7dx3), 10 and 15 mg/kg, relative to control ADC
  anti-tumor activity: significantly inhibited MCF7 tumor growth
MCF7 tumors; single dose 15 mg/kg, relative to control ADC
  anti-tumor activity: significantly inhibited the growth of the MCF7 tumors
MCF7 tumors; single dose of 5 or 10 mg/kg
  anti-tumor activity: moderate in vivo anti-tumor activity
